# Experimental data published in the nanobody polyreactivity screen of Harvey et al. (2022).
# Experiment: yeast display, Sf9 membrane polyspecificity reagent, FACS + sequencing; frameworks hold sequencing errors
# In short: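 In a synthetic yeast display library (Saccharomyces cerevisiae BJ5465), nanobody expression was induced with galactose for 36–48 hours. FACS gates were set low and high (top ~1%) using anti-HA fluorescence for expression and streptavidin fluorescence for binding of the Sf9 membrane reagent. Each polyreactivity label is drawn from the gate of origin.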
row,Sequence,polyreactivity (PSR sort gate)
1,QVQLVESGGGLVQAGGSLRLSCAASGRIFGWYAMGWYRQAPGKERELVAAINRGGSTNYADSVKGRFTISRDNAKNTVYLQMNSLSPEDTGVYYCAVRGVHYTAVTNIIYGYGYWGQGTQVTVSS,high polyreactivity
2,QVQLVESGGGLVQAGGSLRLSCAASGRIFGYNAMGWYIQAPGKERELVAVITYSGGSTYYADSVKGRFTISRDNAKNTVYLQMNSLKPEDTAVYYCNARPIDRYSGSGKQWPDYNYWGQGTQVTVSS,low polyreactivity
3,QVQLVESGGGLVQAGGSLRLSCAASGRIFGYNAMGWYRLAPGKERELVAAIRSGGSTNYADSVKGRFTISRDNAKNTVYLQMNSLKPEDTAVYYCAADDRWWYTPRPRYNYWGQGTQVTVSS,high polyreactivity
4,QVQLVESGGGLVQAGGSLRLSCAASGRIFGYNAMGWYRQAPGKERELVAAIRRSGNTYADSVKGRFTISRDNAKNTVYLQMNSLKPEDTAVYYCAHRVSKRMYYWGQGTQVTVSS,high polyreactivity
5,QVQLVESGGGLVQAGGSLRLSCAASGRIFGYNAMGWYRQAPGKERELVATISSGGGTNYADSVKGRFTISRDNAKNTVYLQMNSLKPEDTAVYYCNARIVYYYKRYTRDYEYWGQGTQVTVSS,low polyreactivity
6,QVQLVESGGGLVQAGGSLRLSCAASGRIFGYNAMGWYRQAPGKVRELVAAITTSGGSTYYADSVTGRFTISRDTAKNTVYLQMNSLKPEDTAVYYCARDSLQVFYQYASDDYWGQGTQVTVSS,low polyreactivity
7,QVQLVESGGGLVQAGGSLRLSCAASGRIFGYNAMGWYRQAPGTERELVAAISSSGGGTYYADSVKGRFTISRDNAKNTVYLQMNSLKPEDTAVYYCAAYTRPGRYDYWGQGTQVTVSS,high polyreactivity
8,QVQLVESGGGLVQAGGSLRLSCAASGRIFGYYAMGWYRPAPGKERELVAGITSGGITNYADSVKGRFTISRDNAKNTVYLQMNSLKPEDTAVYYCAARSGYYYRVKFYYWGQGTQVSVSS,high polyreactivity
9,QVQLVESGGGLVQAGGSLRLSCAASGRIFGYYAMGWYRQAPGKERELVAAIRRSGGSTYADSVKGRFTISRDNAKNTVYLQMNSLKPEDTAVYYCAAGHYWFTKGYHTLYDMDYWGQGTQVTVSS,high polyreactivity
10,QVQLVESGGGLVQAGGSLRLSCAASGRIFGYYAMGWYRQAPGKERELVAAISWSGGSTFYADSVKGRFTISRDYAKNTVYLQMISLKPEDTAVYYCNKDHLVYPSEFYYWGQGTQVTVSS,low polyreactivity
11,QVQLVESGGGLVQAGGSLRLSCAASGRIFGYYAMGWYRQAPGKERELVAAITINGGRTYYADSVKGRFTISRDNAKNTVYLQMNSLKPEDTAVYYCTATSRYNRLGYWGQGTQVTVSS,high polyreactivity
12,QVQLVESGGGLVQAGGSLRLSCAASGRIFGYYAMGWYRQAPGKERELVAAITSGGRTNYADSVKGRFTISRDNAKNTVYLQMNSLKPEDTAVYYCAKEYPRYSSPYDYWGQGTQVTVSS,low polyreactivity
13,QVQLVESGGGLVQAGGSLRLSCAASGRIFGYYAMGWYRQAPGKERELVAAITSGGRTYYADSVKGRFTISRDNAKNTVYLHMNSLKPEDTAVYYCAAVRALRKVRDYYYWGQGTQVTVSS,high polyreactivity
14,QVQLVESGGGLVQAGGSLRLSCAASGRIFGYYAMGWYRQAPGKERELVAAITWGGGTTRYADSVKGRFTISRDNAKNTVYLQMNSLKPEDTAVYYCATALWVRYYGQGGYIRRYDYWGQGTQVTVSS,high polyreactivity
15,QVQLVESGGGLVQAGGSLRLSCAASGRIFGYYAMGWYRQAPGKERELVARITWSGGDTYYADSVKGRFTISRDNAKNTVYLQMNSLKPEDTAVYYCAADYLDSTYGYVYGWDDYWGQGTQVTVSS,low polyreactivity
16,QVQLVESGGGLVQAGGSLRLSCAASGRIFGYYAMGWYRQAPGKERELVDSISSNGTSTYYADSVKGRFTISRDNAKNTVYLQMNSLKPEDTAVYYCAASYWYDKAYDYWGHGTQVTVSS,low polyreactivity
17,QVQLVESGGGLVQAGGSLRLSCAASGRIFGYYAMGWYRQATGKERELVADITESGTSTYYADSVKGRFTISRDNAKNTVYLQMNSLKPEDTAVYYCAAGYWWRYALYVYWGQGTQVTVSS,low polyreactivity
18,QVQLVESGGGLVQAGGSLRLSCAASGRIFGYYSMGWYRQAPGKEREFVSTINSVGSTNYADSVKGRFTISRDNAKNTVYLKMNSLKAEDTAVYYGATDSAYTFFSYRLWRHGYWGQGTQVTVSS,low polyreactivity
19,QVQLVESGGGLVQAGGSLRLSCAASGRIFGYYTMGSYRQAPGKEREFVASISSTGGSTYYADSVKGRFTISRDNAKNTVYLQMNSLKPEDTAVYYCAARGRYVIDGYRMYYWGQGTQVTVSS,high polyreactivity
20,QVQLVESGGGLVQAGGSLRLSCAASGRIFGYYTMGWYRQAPGKERELVAAINGRGTSTYYADSVKGRFTISRDNAKNTVYLQMNSLKPEDTAVYYCAADGYTRADDYWGQGTQVTVSS,high polyreactivity

row,Sequence,polyreactivity (PSR sort gate)
1,QVQLVESGGGLVQAGGSLRLSCAASGRIFGYYVMGWYRQAPGTERELVAAITGGGGSTYYADSVKGRFTISRDNAKNTVYLQMNSLKPEDNAVYYCAADLEDTTYEYDYWGQGTQVTVSS,high polyreactivity
2,QVQLVESGGGLVQAGGSLRLSCAASGRIFHFIAMGWYRQAPGKERELVATITKRGGRTYYADSVKGRFTISRDNAKNTVYLQMNSLKPEDTAVYYCNADQSRYSAVSGYDYWGQGTQVTVSS,high polyreactivity
3,QVQLVESGGGLVQAGGSLRLSCAASGRIFHFNAMGWYRQAPGTEKELVATITKRGGRTYYADSVKGRFTISRDNAKNTVYLQMNSLKPDDTAVYYCNADQTRYSAVSGYDYWGQGTQVTVSS,high polyreactivity
4,QVQLVESGGGLVQAGGSLRLSCAASGRIFHGYAMGWYRQAPGKERDLDAAISWRGDSTYYADSVKGRFTISRDNAKNTVYLQINSLKPEDTAVYYCAAASRSWRDDYWGQCTQVTVSS,low polyreactivity
5,QVQLVESGGGLVQAGGSLRLSCAASGRIFHNYAMGWYRQAPGKERELVAGISSRGGSTYYADSVKGRFTISRDNAKNTVYLQMNSLKPEDTAVYYCAKDKSPYGYATNQYRKYYYWGQGTQVTVSS,low polyreactivity
6,QVQLVESGGGLVQAGGSLRLSCAASGRIFHRNAMGWYRQAPGKERELVATIRGNGGSTYYADSVKGRFTISRDNAKNTVYLQMNSLKPEDTAVYYCALDAQGYGGWWTYSRFYSWGQGTQVTVSS,high polyreactivity
7,QVQLVESGGGLVQAGGSLRLSCAASGRIFHRYAMGWYRQAPGKEREFVAAITYSTGTTYYADSVKGRFTISRDNAKNTVYLQMNSLKPEDTAVYYCAKDSRFWHKSWFAYGYDYWGQGTQVTVSS,low polyreactivity
8,QVQLVESGGGLVQAGGSLRLSCAASGRIFHSNTKGWYRQAPGKERELVARISSVGSTNYADSVKGRFTISRDNAKNTVYLQMNSQKPEDTAVYYCAAQRYYTQSSYYLALYDFWGQGTQVTVSS,low polyreactivity
9,QVQLVESGGGLVQAGGSLRLSCAASGRIFHWYAMGWYSQAPGKERELVAAISTDGSTYYADSVKGRFTISRDNAKNTVYLQKNSLKPEDTAVYYCAAVPGYTHLWGGPFDYGGQGTQVTVSS,low polyreactivity
10,QVQLVESGGGLVQAGGSLRLSCAASGRIFHWYTMGWYRQAPGKEMELVAAISGSGGSTHYADSVKGRLTISRDNAKNTVYLQMNSLKPEDTAVYYCAAYIPVRYGTSDRGYWGQGTQVTVSS,low polyreactivity
11,QVQLVESGGGLVQAGGSLRLSCAASGRIFHYAMGWYRQAPGKERELVAGISKRGGSTYYADSVKGRFTISRDNAKNTVYLQMNSLKPEDTAVYYCAAGRAYDGTKHDYWGQGTQVTVSS,high polyreactivity
12,QVQLVESGGGLVQAGGSLRLSCAASGRIFIAYAMGWYRKAPAKERELVAAITDDGGTNYADSVKGRFTISRDNAKNTVYLQMKSLKPEDTAVYYCAATYLIGYYYVWEYDYWGQGTQVTVSS,low polyreactivity
13,QVQLVESGGGLVQAGGSLRLSCAASGRIFIAYAMGWYRQAPWKEREFVAAISSRGGSTYYADSVKGRFTISRDNAKNTVYLQMNSLKPEDTAVYYCGAWTLYWSHTTWSYDYWGQGTQVTVSS,low polyreactivity
14,QVQLVESGGGLVQAGGSLRLSCAASGRIFIIYAMGWYRQAPGKEREFVAAITSSGGSTYYADSVKGRFTISRDNAKNTVYLQMYSLKPEDTAVYYCNKVTRYYREYHRDSQYGYWGQGTQVTVSS,high polyreactivity
15,QVQLVESGGGLVQAGGSLRLSCAASGRIFILNTMGWYRQAPGKERELLAGISYSGSTYYADSVKGRFTISRDNAKNTVYLQMNSLKPDDTAVYYCAADYDAAWYNDGYYYWGQGTQVTVSS,low polyreactivity
16,QVQLVESGGGLVQAGGSLRLSCAASGRIFILYAMGWYRQAPGKERELVAAITGGSTYYADSVKGRFTISRDNAKNTVYLQMNSLKPEDSAVYYCAADVRHYIWEYYYWGQGTQVTVSS,low polyreactivity
17,QVQLVESGGGLVQAGGSLRLSCAASGRIFIPYAMGWYRQAPGKERELVAVISWNGGSTYYADSVKGRFTISRDNAKNTVYLQMNSLKPEDTAVYYCAADTYPYAKMDYWGQGTQVTVSS,low polyreactivity
18,QVQLVESGGGLVQAGGSLRLSCAASGRIFIRAMGCYTQAPGKERELVAGITNGGITYYADSVKGRFTISRDNAKTTVYLQMNSLKPEDTAVYSCNARSRSVLYKYDYWGQGTQETVSS,low polyreactivity
19,QVQLVESGGGLVQAGGSLRLSCAASGRIFIRNAMGWYRQAPGKERELVAAISRSGGRTYYADSVKGRFTISRDNAKNTVYLQMNSLKQEDTAVYYCARTTPYFNVDCGGYDYWGQGTQVTVSS,high polyreactivity
20,QVQLVESGGGLVQAGGSLRLSCAASGRIFIRYAMGWYRQAPGKERELVAGITSGGDTYYADSVKGRFTISRDNAKNTVYLQMNSLKPEDTAVYYCARVRYGRMDYWGQGTQVTVSS,high polyreactivity
